± gives the standard deviation of the averaged measurements.
Each sequence was assayed on Saccharomyces cerevisiae (assay: protein stability index of tFT-peptide fusion (C-terminal peptide) (PSI (0-1 scale)); higher = more stable (slower turnover)). Settings: genetic background: wild type; temperature: 30 C.
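Also: PSI is a weighted mean of sequencing reads over stability bins, variants kept only with over 10 reads, mCherry proximal and sfGFP distal, peptide attached via GGGS linker.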

Sequence | protein stability index
PHLESVRYGLFS | 0.709 ± 0.02
PHLFDPLVPASF | 0.682 ± 0.048
PHLHTPDDARPL | 0.698 ± 0.092
PHLPYCSPSFPV | 0.642 ± 0.059
PHLTPRRQHRLR | 0.667 ± 0.049
PHPLLPGRSSPP | 0.677 ± 0.061
PHPLPHASPAPC | 0.6677 ± 0.0019
PHPLPPPTPSVP | 0.677 ± 0.018
PHPPHLRPLCPR | 0.719 ± 0.029
PHPPHRLPYPRL | 0.808 ± 0.054
PHPPPERSTNLC | 0.694 ± 0.036
PHPPPHPLFSRF | 0.758 ± 0.02
PHPPPPSPPLPT | 0.709 ± 0.041
PHPPSDLLPYRP | 0.691 ± 0.022
PHPRPPLPLSLP | 0.697 ± 0.013
PHRACSSRPLGP | 0.718 ± 0.049
PHRPPPHHSLPP | 0.6976 ± 0.0013
PHRPTALALHWF | 0.66 ± 0.0067
PHTHHAPNTRNQ | 0.6797 ± 0.0036
PIALPLPPPTPS | 0.757 ± 0.08
PIERISNSGKRP | 0.6928 ± 0.0017
PIGVFFVSGCVG | 0.606 ± 0.014
PIPSPYYPPTFC | 0.73 ± 0.11
PISGFLRPPPPF | 0.663 ± 0.012
PISPLPPPRFLP | 0.677 ± 0.04
PKKNIKSKNIIL | 0.714 ± 0.034

Sequence | protein stability index
PKSRSVTTSIPG | 0.691 ± 0.042
PKVDLSVVRSGY | 0.638 ± 0.016
PLAPLPMSPHLA | 0.572 ± 0.016
PLAPPLRPLVSP | 0.66 ± 0.076
PLASLPALHFSL | 0.678 ± 0.025
PLASPRIYAQHL | 0.697 ± 0.016
PLAWSAPCRPHT | 0.73 ± 0.029
PLCAFLFLSSPP | 0.757 ± 0.031
PLFPPPPLRSWP | 0.766 ± 0.089
PLGCGLTRCVAT | 0.599 ± 0.0067
PLGQGRRRPPDA | 0.732 ± 0.1
PLHDGRFANDSF | 0.674 ± 0.043
PLHPPCLPPSRL | 0.814 ± 0.043
PLHPPSLPPPPT | 0.732 ± 0.032
PLHPSFPPPPAP | 0.5147 ± 0.0044
PLHRARAPHSYP | 0.7167 ± 0.006
PLKPPTPDPPHR | 0.666 ± 0.027
PLLLSPPPLYTF | 0.632 ± 0.028
PLLPATFLPATP | 0.74 ± 0.021
PLLPPLPATSHT | 0.786 ± 0.14
PLLPPLPPRPPP | 0.633 ± 0.03
PLLPPPPPPPPT | 0.718 ± 0.025
PLLPPSSVPTPS | 0.784 ± 0.1
PLLSPPSPLPPF | 0.724 ± 0.022
PLLSPPSPPPPT | 0.713 ± 0.017
PLPAAPPILFSL | 0.731 ± 0.038

Sequence | protein stability index
PLPAPPPPTLPD | 0.715 ± 0.065
PLPARSPPPTSV | 0.652 ± 0.026
PLPFPLLPPPPH | 0.705 ± 0.013
PLPFPPPLPPPT | 0.681 ± 0.043
PLPFPSSPPPPP | 0.6723 ± 0.0018
PLPFPSTPPPPD | 0.691 ± 0.031
PLPFRSSPLLVL | 0.614 ± 0.05
PLPGLLHCPTSP | 0.717 ± 0.12
PLPLAPHPDYSL | 0.687 ± 0.052
PLPLFGPRLSPP | 0.875 ± 0.065
PLPLHPSALPSL | 0.676 ± 0.05
PLPLPLLPPPLP | 0.764 ± 0.11
PLPLPPPSLSPL | 0.73279 ± 8.7e-05
PLPLPVSPRPPP | 0.6807 ± 0.0063
PLPLPYCQASPV | 0.658 ± 0.008
PLPLSPPLLPAP | 0.6 ± 0.0082
PLPPCCLPPSAF | 0.6857 ± 0.0061
PLPPCPPTPCPS | 0.648 ± 0.013
PLPPHVPPSLPP | 0.679 ± 0.0083
PLPPPDPPAPSL | 0.716 ± 0.0085
PLPPPGPLPSPP | 0.736 ± 0.043
PLPPPLPPTLPL | 0.72 ± 0.018
PLPPPPALLFPP | 0.733 ± 0.054
PLPPPPPALPLP | 0.683 ± 0.037
PLPPPPPDILTP | 0.743 ± 0.013
PLPPPPPTSLPP | 0.705 ± 0.043

Sequence | protein stability index
PLPPRPHPLLSP | 0.6526 ± 0.0026
PLPPSPPPPPSP | 0.677 ± 0.019
PLPQNIPFPLPL | 0.735 ± 0.019
PLPRLSYRPPTL | 0.663 ± 0.028
PLPRPLPPRVPF | 0.712 ± 0.013
PLPRPPSPLPAL | 0.689 ± 0.039
PLPSPPVPPPPP | 0.6796 ± 0.0043
PLPTGTQPTRHR | 0.669 ± 0.0079
PLPTHISPPLPS | 0.6893 ± 0.006
PLRLPPPRSPPL | 0.689 ± 0.032
PLRPRGAAPPHP | 0.6842 ± 0.0026
PLSAPNHVPGRT | 0.702 ± 0.045
PLSFPTFVPLPI | 0.663 ± 0.043
PLSFSPSLRYPP | 0.659 ± 0.023
PLSGFSSPSFFP | 0.693 ± 0.025
PLSPLPPPPPPP | 0.649 ± 0.04
PLSPPPPSPPFA | 0.743 ± 0.013
PLSPPPPSPPRP | 0.645 ± 0.025
PLSPRHVSPPLL | 0.778 ± 0.045
PLSRPFSPSLPL | 0.66 ± 0.028
PLSRYPSPSLPL | 0.693 ± 0.0076
PLVFSTSLCVSE | 0.666 ± 0.0093
PLVLPPSPASPF | 0.694 ± 0.042
PLVLSHRLPLPP | 0.703 ± 0.067
PLVPLAFWSPLV | 0.686 ± 0.035
PLVPPESPRSQV | 0.6564 ± 0.0034

Sequence | protein stability index
PLVSLLPHPRAA | 0.495 ± 0.094
PLWALVRDVRVG | 0.652 ± 0.033
PLYLSFSFCPSF | 0.611 ± 0.013
PMHVLTKLCDGV | 0.689 ± 0.083
PMLSLFRYNVVR | 0.697 ± 0.021
PMPGRSEREYQV | 0.711 ± 0.087
PNLARPSTPTTS | 0.72 ± 0.023
PNLKLSPKWAKP | 0.67 ± 0.063
PNLRPPSPPSLL | 0.714 ± 0.049
PNVPVPTPPPGI | 0.729 ± 0.061
PPAALPRSTPPP | 0.704 ± 0.063
PPAFLSPPLDPL | 0.6054 ± 0.0032
PPAPGPPHPPAL | 0.651 ± 0.013
PPAPPHPPPFPP | 0.589 ± 0.052
PPAPPLSSPPPS | 0.662 ± 0.053
PPAPPPPLPPPP | 0.64 ± 0.017
PPAPPPPPLPSY | 0.714 ± 0.052
PPAPRPSTRHTP | 0.74 ± 0.013
PPAPSPLPPPPF | 0.756 ± 0.03
PPAPSPRPPPPP | 0.708 ± 0.067
PPAPTAPPLSSH | 0.681 ± 0.03
PPARRPVPPLSC | 0.7187 ± 0.0058
PPASPPAPPTFG | 0.645 ± 0.021
PPATPTNPPVSP | 0.687 ± 0.027
PPATTPICSTPS | 0.681 ± 0.017
PPAVPSTPLSPP | 0.685 ± 0.032

Sequence | protein stability index
PPCTVHPLPRLP | 0.727 ± 0.02
PPDLSWPPAPLP | 0.824 ± 0.021
PPDPRLPRHDRP | 0.755 ± 0.018
PPEPRPLPDAPP | 0.5977 ± 0.0052
PPFDSAHPTPAP | 0.739 ± 0.019
PPFLLPCFPCFS | 0.494 ± 0.07
PPFLPPSPPAPP | 0.691 ± 0.031
PPFPPHPPPSSA | 0.6873 ± 0.0052
PPFPPPPPPSPS | 0.751 ± 0.07
PPFPPPSPPHAL | 0.751 ± 0.1
PPFPPRPLPPIP | 0.693 ± 0.017
PPFSLVTGLPCP | 0.71 ± 0.048
PPFVPFLLIFPP | 0.611 ± 0.042
PPGGSRTEGRRT | 0.688 ± 0.049
PPGPPPPLPISP | 0.7244 ± 0.0044
PPGPRPTPPPPI | 0.641 ± 0.045
PPGPTSSPTKTH | 0.729 ± 0.056
PPGSPGPRTPPP | 0.708 ± 0.024
PPHAAPPHICWQ | 0.727 ± 0.049
PPHCSSPTPARH | 0.694 ± 0.028
PPHHPPPASRSQ | 0.653 ± 0.068
PPHLPPPPPVPA | 0.5751 ± 0.0052
PPHPKPPPAPPP | 0.527 ± 0.041
PPHPLPPPSPPF | 0.682 ± 0.034
PPHPPRPSVSSS | 0.687 ± 0.0097
PPHPRTPPATPP | 0.601 ± 0.12

Sequence | protein stability index
PPHPSPPHPSSA | 0.752 ± 0.01
PPHSIPSPSHPR | 0.714 ± 0.052
PPHSPETVPARP | 0.688 ± 0.046
PPHTALLPPAPA | 0.583 ± 0.019
PPHTRTACHRAP | 0.7251 ± 0.0034
PPLAAFLPFLAL | 0.694 ± 0.0011
PPLAPPHPCPPP | 0.698 ± 0.018
PPLASFPPPPPL | 0.667 ± 0.064
PPLASPDPPLPL | 0.66 ± 0.083
PPLGPARNYPSL | 0.673 ± 0.018
PPLLHPLPPPLP | 0.659 ± 0.014
PPLLPPPLTPPD | 0.628 ± 0.051
PPLLPPTPPLSA | 0.625 ± 0.018
PPLLPRPPPLSP | 0.6677 ± 0.0037
PPLPCATLPSHS | 0.706 ± 0.013
PPLPFSSSRFPS | 0.666 ± 0.02
PPLPLPTLPCRP | 0.644 ± 0.035
PPLPLTAPHLCH | 0.705 ± 0.03
PPLPPPPHPPFP | 0.683 ± 0.07
PPLPPPPPPVPA | 0.681 ± 0.036
PPLPPRSPSAPL | 0.695 ± 0.034
PPLPPSSMPPSH | 0.685 ± 0.035
PPLPPVPSPPPP | 0.654 ± 0.025
PPLPSLLGLLFP | 0.6773 ± 0.0044
PPLPSSPPSSPL | 0.68 ± 0.013
PPLRPPPPLPVP | 0.663 ± 0.054

Sequence | protein stability index
PPLSCFPLSTRL | 0.683 ± 0.002
PPLSFDTSRVAP | 0.677 ± 0.049
PPLSHPRPILAP | 0.5683 ± 0.0025
PPLSPLAPPSHP | 0.727 ± 0.069
PPLSPRLLWSPV | 0.711 ± 0.0044
PPLVPPPLRASP | 0.684 ± 0.037
PPLYFFSPMAFF | 0.783 ± 0.032
PPMSYYLFPCSR | 0.699 ± 0.061
PPPAFRLPLPPP | 0.727 ± 0.072
PPPALTHLLPLP | 0.678 ± 0.058
PPPAPLSPLSPR | 0.6777 ± 0.0016
PPPAPPSPPPPP | 0.65 ± 0.054
PPPAPPVRPDRS | 0.686 ± 0.048
PPPASPLPPASP | 0.667 ± 0.031
PPPASPSPSMVF | 0.693 ± 0.024
PPPASRTPSNLP | 0.732 ± 0.046
PPPDPPLSPPPP | 0.676 ± 0.087
PPPDYPPTPAPS | 0.715 ± 0.054
PPPEVDLRPCHC | 0.688 ± 0.055
PPPFCPCNRLNG | 0.702 ± 0.0078
